Numbering of substitutions follows the chain as printed.
B1: suPAR_DB01_G09 (scFv, V domains shown)
VH: QVQLVQSGAEVKKPGASVKVSCKASGHTLNSYYMHWVRQAPGQGLEWMGWIDPENGNTIYAQKFQGRVTMTRDTSTSTVYMELSSLRSEDTAVYYCARGYDVDWFVYWGQGTLVTVSS
VL: DIQMTQSPSSLSASVGDRVTITCSARQSVSYMYWYQQKPGKAPKLLIYRTSNLASGVPSRFSGSGSGTDFTLTISSLQPEDFATYYCQQYHSYPPTFGGGTKVEIK
notes: Screened as scFv
B2: suPAR_DB01_G10 (scFv, V domains shown)
VH: B1 VH with H27Y, L29F, N30T, S31N, P53H, N55G, I59S
VL: B1 VL with Q27S
notes: Screened as scFv
B3: suPAR_DB01_G12 (scFv, V domains shown)
VH: B1 VH with H27D, L29F, N30S, S31N, P53H, A61D
VL: B1 VL with Q27S, V29I
notes: Screened as scFv
B4: suPAR_DB01_H01 (scFv, V domains shown)
VH: B1 VH with H27D, L29F, N30T, A61D
VL: B1 VL with Q27S
notes: Screened as scFv
B5: suPAR_DB01_H03 (scFv, V domains shown)
VH: B1 VH with H27D, L29I, N30T, S31N, P53T, E54N, N55S, N57G, I59Q
VL: B1 VL with Q27S
notes: Screened as scFv
B6: suPAR_DB01_H04 (scFv, V domains shown)
VH: B1 VH with H27Y, L29F, N30T, S31N, E54N, N55S, N57G, I59N
VL: B1 VL with Q27S
notes: Screened as scFv
B7: suPAR_DB01_H05 (scFv, V domains shown)
VH: B1 VH with H27Y, L29F, N30T, S31G, Y32N, M34V, P53H, A61D
VL: B1 VL with Q27S
notes: Screened as scFv
B8: suPAR_DB01_H06 (scFv, V domains shown)
VH: B1 VH with H27F, T28N, L29I, N30K, S31D, A61D
VL: B1 VL with V29I
notes: Screened as scFv
B9: suPAR_DB01_H07 (scFv, V domains shown)
VH: B1 VH with H27D, L29F, N30S, S31N, P53H, N57S
VL: B1 VL with Q27S
notes: Screened as scFv
B10: suPAR_DB01_H10 (scFv, V domains shown)
VH: B1 VH with H27Y, L29F, N30T, S31N, P53H, N57S
VL: B1 VL
notes: Screened as scFv
B11: suPAR_DB02_A03 (scFv, V domains shown)
VH: B1 VH with H27Y, L29F, N30T, S31D, M34I
VL: B1 VL with Q27S
notes: Screened as scFv
B12: suPAR_DB02_A04 (scFv, V domains shown)
VH: B1 VH with H27Y, L29F, N30T, S31G, M34V, P53H, A61D
VL: B1 VL with S24R, R26S, Q27S
notes: Screened as scFv
B13: suPAR_DB02_A05 (scFv, V domains shown)
VH: B1 VH with H27D, L29F, N30T
VL: B1 VL
notes: Screened as scFv
B14: suPAR_DB02_A07 (scFv, V domains shown)
VH: QVQLVQSGAEVKKPGASVKVSCKASGYNIKDYYIHWVRQAPGQGLEWMGWISPDSGVTNYAQKFQGRVTMTRDTSTSTVYMELSSLRSEDTAVYYCARGYDVDWFVYWGQGTLVTVSS
VL: B1 VL
notes: Screened as scFv
B15: suPAR_DB02_A08 (scFv, V domains shown)
VH: B1 VH with H27Y, L29F, N30T, S31T
VL: B1 VL with Q27S
notes: Screened as scFv
B16: suPAR_DB02_A09 (scFv, V domains shown)
VH: B1 VH with H27Y, L29F, N30T, S31N, N55G, N57S, A61D
VL: B1 VL with V29I
notes: Screened as scFv
B17: suPAR_DB02_A10 (scFv, V domains shown)
VH: B1 VH with H27Y, L29F, N30T, S31G, Y32N, P53H, A61D, Y100S
VL: B1 VL with Q27S
notes: Screened as scFv
B18: suPAR_DB02_A11 (scFv, V domains shown)
VH: B1 VH with H27G, L29F, N30S, E54S, A61D
VL: B1 VL
notes: Screened as scFv
B19: suPAR_DB02_A12 (scFv, V domains shown)
VH: B1 VH with H27Y, L29F, N30T, S31N, P53H, N57S, V102M
VL: B1 VL with Q27S
notes: Screened as scFv
B20: suPAR_DB02_B01 (scFv, V domains shown)
VH: B1 VH with H27Y, L29F, N30T, S31G, Y32H, M34V, P53H, A61D
VL: B1 VL
notes: Screened as scFv
B21: suPAR_DB02_B03 (scFv, V domains shown)
VH: B1 VH with H27Y, L29F, N30I, S31G, Y32N, M34I, P53H, N57S, A61D, Y100S
VL: B1 VL with Q27S
notes: Screened as scFv
B22: suPAR_DB02_B04 (scFv, V domains shown)
VH: B1 VH with H27Y, L29F, N30T, S31G, Y32H, P53H, A61D
VL: B1 VL with Q27S
notes: Screened as scFv
B23: suPAR_DB02_B05 (scFv, V domains shown)
VH: B1 VH with H27Y, L29F, N30T, P53H, I59S
VL: B1 VL with S24R
notes: Screened as scFv
B24: suPAR_DB02_B06 (scFv, V domains shown)
VH: B1 VH with H27D, L29F, N30T, P53H, N55G, N57S, K63Q
VL: B1 VL with Q27S
notes: Screened as scFv
B25: suPAR_DB02_B07 (scFv, V domains shown)
VH: B1 VH with L29F, N30S
VL: B1 VL with V29I
notes: Screened as scFv
B26: suPAR_DB02_B08 (scFv, V domains shown)
VH: B1 VH with H27Y, T28S, L29F, N30T, S31N, P53H, N57S, I59S, A61D
VL: B1 VL with Q27S
notes: Screened as scFv
B27: suPAR_DB02_B09 (scFv, V domains shown)
VH: B1 VH with H27Y, L29F, N30T, S31G, M34V, P53H, E54S, A61D, R98S
VL: B1 VL with Q27S
notes: Screened as scFv
B28: suPAR_DB02_B10 (scFv, V domains shown)
VH: B1 VH with H27Y, L29F, N30T, S31N, I59S, A61D
VL: B1 VL with S24R
notes: Screened as scFv
B29: suPAR_DB02_C01 (scFv, V domains shown)
VH: B1 VH with H27Y, L29F, N30T, S31G, N57S, A61D
VL: B1 VL with S24R
notes: Screened as scFv
B30: suPAR_DB02_C02 (scFv, V domains shown)
VH: B1 VH with H27Y, L29F, N30K, P53H, A61D, R98S
VL: B1 VL with Q27S
notes: Screened as scFv
B31: suPAR_DB02_C04 (scFv, V domains shown)
VH: B14 VH with Y27F, S52D, P53H, D54E, S55G, V57S, N59S, A61D
VL: B1 VL with Q27S
notes: Screened as scFv
B32: suPAR_DB02_C05 (scFv, V domains shown)
VH: B1 VH with H27G, L29F, N30S, P53H, A61D
VL: B1 VL with Q27S
notes: Screened as scFv
B33: suPAR_DB01_H08 (scFv, V domains shown)
VH: B14 VH with Y27F, S52D, D54N, S55G, V57G, N59Q
VL: B1 VL with S24R, R26S, Q27S, A54Q
notes: Screened as scFv
B34: suPAR_DB05_B12 (scFv, V domains shown)
VH: B1 VH with H27Y, L29F, N30T, S31N
VL: B1 VL
notes: Screened as scFv
B35: suPAR_DB04_H03 (scFv, V domains shown)
VH: QVQLVQSGAEVKKPGASVKVSCKASGYTFTGNYLHWVRQAPGQGLEWMGWIDHSNGSTIYDQKFQGRVTMTRDTSTSTVYMELSSLRSEDTAVYYCARGSDVDWFVYWGQGTLVTVSS
VL: B1 VL with R26S, Q27S
notes: Screened as scFv
B36: suPAR_DB04_H05 (scFv, V domains shown)
VH: B1 VH with N55G
VL: B1 VL with Q27S
notes: Screened as scFv
B37: suPAR_DB04_H06 (scFv, V domains shown)
VH: B1 VH with H27Y, L29F, N30T, S31N, M34V, P53H, I59S
VL: B1 VL with Q27S, A54Q
notes: Screened as scFv
B38: suPAR_DB04_H07 (scFv, V domains shown)
VH: B1 VH with H27Y, L29F, N30T, P53H, I59S, A61D
VL: B1 VL with S24R, Q27S
notes: Screened as scFv
B39: suPAR_DB04_H08 (scFv, V domains shown)
VH: B14 VH with N28T, I29F, K30S, D54K
VL: B1 VL with R26S
notes: Screened as scFv

Each binder was assayed against T1, cynomolgus soluble urokinase plasminogen activator receptor (cynomolgus suPAR) (cynomolgus, UniProt Q9GK78 23-303, limits assumed) (assay: BLI (Octet) off-rate screen of scFv).
T1 construct: also called cynomolgus uPAR; cynoPLAUR-His
T1 sequence (Q9GK78 23-303 limits assumed): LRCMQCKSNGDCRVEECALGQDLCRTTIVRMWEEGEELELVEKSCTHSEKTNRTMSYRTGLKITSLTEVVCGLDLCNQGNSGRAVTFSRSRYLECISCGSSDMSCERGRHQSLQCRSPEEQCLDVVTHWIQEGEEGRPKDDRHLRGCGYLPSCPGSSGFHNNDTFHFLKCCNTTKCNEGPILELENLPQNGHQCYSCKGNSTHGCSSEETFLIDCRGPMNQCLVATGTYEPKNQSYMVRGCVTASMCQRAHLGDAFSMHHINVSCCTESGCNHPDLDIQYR
B1 gave a koff of 0.000347 s⁻¹.
B2 showed a koff of 0.000197 s⁻¹.
Work on B3 yielded a koff of 0.000247 s⁻¹.
B4 was tested, and the koff was 0.000122 s⁻¹.
B5 gave a koff of 0.000677 s⁻¹.
For B6, the koff was 0.000225 s⁻¹.
B7 showed a koff of 0.000432 s⁻¹.
For B8, the koff was 0.000129 s⁻¹.
Work on B9 yielded a koff of 0.000219 s⁻¹.
B10 showed a koff of 0.000374 s⁻¹.
For B11, the koff was 0.000341 s⁻¹.
For B12, the koff was 0.000521 s⁻¹.
B13 showed a koff of 0.000151 s⁻¹.
In the case of B14, the koff is reported as 0.000352 s⁻¹.
For B15, the koff was 7.98e-05 s⁻¹.
Binder B16 has a koff of 0.000484 s⁻¹.
B17 gave a koff of 0.00024 s⁻¹.
Work on B18 yielded a koff of 0.000232 s⁻¹.
In the case of B19, the koff is reported as 2.26e-05 s⁻¹.
B20 was tested, and the koff was 0.000363 s⁻¹.
B21 gave a koff of 0.000424 s⁻¹.
In the case of B22, the koff is reported as 0.000185 s⁻¹.
In the case of B23, the koff is reported as 0.000199 s⁻¹.
With B24 the koff was 0.000127 s⁻¹.
Binder B25 has a koff of 8.12e-05 s⁻¹.
For B26, the koff was 8.61e-05 s⁻¹.
Work on B27 yielded a koff of 0.000208 s⁻¹.
B28 showed a koff of 0.000434 s⁻¹.
B29 showed a koff of 0.00025 s⁻¹.
B30 showed a koff of 3.58e-05 s⁻¹.
Work on B31 yielded a koff of 0.00132 s⁻¹.
In the case of B32, the koff is reported as 0.000285 s⁻¹.
Work on B33 yielded a koff of 0.00038 s⁻¹.

The binders below were run against T2, human soluble urokinase plasminogen activator receptor (hsuPAR) (human, UniProt Q03405 23-303, limits assumed) (assay: BLI (Octet) off-rate screen of scFv).
T2 construct: also called human suPAR; rhuPAR-His
T2 sequence (Q03405 23-303 limits assumed): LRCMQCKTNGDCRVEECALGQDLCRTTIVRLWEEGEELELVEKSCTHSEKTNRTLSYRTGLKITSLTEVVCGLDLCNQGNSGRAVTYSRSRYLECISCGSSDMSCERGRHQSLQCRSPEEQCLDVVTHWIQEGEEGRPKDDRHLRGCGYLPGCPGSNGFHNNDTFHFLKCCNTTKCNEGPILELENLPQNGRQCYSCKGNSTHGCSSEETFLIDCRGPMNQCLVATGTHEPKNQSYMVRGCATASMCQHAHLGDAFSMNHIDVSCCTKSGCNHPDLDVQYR
B1 was tested, and the koff was 0.00433 s⁻¹.
B2 gave a koff of 0.00343 s⁻¹.
Work on B3 yielded a koff of 0.00466 s⁻¹.
B4 showed a koff of 0.00454 s⁻¹.
Binder B5 has a koff of 0.001 s⁻¹.
B6 showed a koff of 0.00242 s⁻¹.
Binder B7 has a koff of 0.00152 s⁻¹.
Binder B8 has a koff of 0.0052 s⁻¹.
With B9 the koff was 0.00138 s⁻¹.
B10 showed a koff of 0.000603 s⁻¹.
B11 gave a koff of 0.00198 s⁻¹.
With B12 the koff was 0.00236 s⁻¹.
Binder B13 has a koff of 0.00521 s⁻¹.
Binder B14 has a koff of 0.00114 s⁻¹.
For B15, the koff was 0.00363 s⁻¹.
In the case of B16, the koff is reported as 0.00613 s⁻¹.
With B17 the koff was 0.00319 s⁻¹.
Work on B18 yielded a koff of 0.00447 s⁻¹.
In the case of B19, the koff is reported as 0.0017 s⁻¹.
Work on B20 yielded a koff of 0.00253 s⁻¹.
B21 showed a koff of 0.00088 s⁻¹.
Work on B22 yielded a koff of 0.00477 s⁻¹.
Binder B23 has a koff of 0.0041 s⁻¹.
B24 was tested, and the koff was 0.00353 s⁻¹.
B25 gave a koff of 0.00447 s⁻¹.
B26 showed a koff of 0.00155 s⁻¹.
For B27, the koff was 0.00422 s⁻¹.
For B28, the koff was 0.00189 s⁻¹.
B29 showed a koff of 0.00465 s⁻¹.
In the case of B30, the koff is reported as 0.00429 s⁻¹.
For B31, the koff was 0.00128 s⁻¹.
B32 gave a koff of 0.00504 s⁻¹.
B33 showed a koff of 0.00281 s⁻¹.

The binders below were run against T3, human soluble urokinase plasminogen activator receptor (suPAR) (human, UniProt Q03405 23-303, limits assumed) (assay: BLI (Octet) off-rate screen of scFv clones).
T3 construct: Column head says only 'human'; also called hsuPAR; human suPAR
T3 sequence (Q03405 23-303 limits assumed): as above
Binder B34 has a koff of 0.00472 s⁻¹.
With B35 the koff was 0.00134 s⁻¹.
For B36, the koff was 0.00584 s⁻¹.
Binder B37 has a koff of 0.00926 s⁻¹.
With B38 the koff was 0.00511 s⁻¹.
With B39 the koff was 0.0034 s⁻¹.

These binders were tested against T4, cynomolgus soluble urokinase plasminogen activator receptor (suPAR) (cynomolgus, UniProt Q9GK78 23-303, limits assumed) (assay: BLI (Octet) off-rate screen of scFv clones).
T4 construct: Column head says only 'cynomologus'; also called cynomolgus suPAR; cynomolgus uPAR
T4 sequence (Q9GK78 23-303 limits assumed): as the sequence (Q9GK78 23-303 limits assumed) above
B34 showed a koff of 0.000383 s⁻¹.
In the case of B35, the koff is reported as 0.000226 s⁻¹.
B36 was tested, and the koff was 0.000182 s⁻¹.
In the case of B37, the koff is reported as 0.000289 s⁻¹.
B38 was tested, and the koff was 0.000249 s⁻¹.
B39 showed a koff of 5.42e-07 s⁻¹.

Source: US20250215104A1 (WALDEN BIOSCIENCES, published 2025)
